We go through 41 molecules from patent US20190142963A1 (INDIANA UNIVERSITY RESEARCH AND TECHNOLOGY, published 2019).

T1: human Klotho β (human, UniProt Q86Z14 1-1044)
T1 sequence (looked up): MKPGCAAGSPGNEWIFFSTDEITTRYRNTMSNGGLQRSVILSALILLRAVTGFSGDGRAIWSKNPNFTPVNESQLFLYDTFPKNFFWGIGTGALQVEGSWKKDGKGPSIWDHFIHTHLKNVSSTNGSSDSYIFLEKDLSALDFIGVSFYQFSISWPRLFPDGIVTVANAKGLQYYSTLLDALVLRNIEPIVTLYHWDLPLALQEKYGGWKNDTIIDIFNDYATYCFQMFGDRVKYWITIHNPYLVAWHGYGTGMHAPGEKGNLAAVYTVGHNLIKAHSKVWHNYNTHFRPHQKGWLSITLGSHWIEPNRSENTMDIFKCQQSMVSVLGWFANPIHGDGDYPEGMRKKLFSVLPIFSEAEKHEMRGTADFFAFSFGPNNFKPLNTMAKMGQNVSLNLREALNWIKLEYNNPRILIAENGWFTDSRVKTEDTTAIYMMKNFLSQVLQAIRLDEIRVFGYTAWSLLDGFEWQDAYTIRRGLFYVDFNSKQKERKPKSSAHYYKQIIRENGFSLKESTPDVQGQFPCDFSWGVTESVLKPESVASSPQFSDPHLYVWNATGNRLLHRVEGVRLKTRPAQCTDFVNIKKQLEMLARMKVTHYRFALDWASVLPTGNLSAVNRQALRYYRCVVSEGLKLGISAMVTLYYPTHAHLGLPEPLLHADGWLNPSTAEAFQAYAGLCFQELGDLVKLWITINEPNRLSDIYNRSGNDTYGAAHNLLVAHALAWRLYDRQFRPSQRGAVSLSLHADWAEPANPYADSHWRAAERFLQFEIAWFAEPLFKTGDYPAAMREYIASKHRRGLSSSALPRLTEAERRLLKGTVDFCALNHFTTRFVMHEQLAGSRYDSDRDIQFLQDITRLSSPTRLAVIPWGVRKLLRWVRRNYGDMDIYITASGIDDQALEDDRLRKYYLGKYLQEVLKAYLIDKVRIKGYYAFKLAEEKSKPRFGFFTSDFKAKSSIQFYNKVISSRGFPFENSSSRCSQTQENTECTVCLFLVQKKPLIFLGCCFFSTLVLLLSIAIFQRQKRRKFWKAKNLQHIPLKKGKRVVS

Non-standard residues stand in square brackets, D forms with d. No end group written: not given here.

For one assay, the target named is T1, human Klotho β. Nature of the assay: cell-based or functional assay.
For the molecule PPDVG[dS]SDPLSMVGPSQGRSPSYAS-NH2 [FGF21 C25 d6], the “% Activity vs C25” value stood at 32.5% and the “IC50 of antagonism of FGF21 (assay of Example 1)” value (“IC50 of antagonism of FGF21” below) worked out at 1980 nM.
With PPDVGSSDPLSMVGPSQGRSPSYA[dS]-NH2 [FGF21 C25 d25], the “% Activity vs C25” value was 119% and the “IC50 of antagonism of FGF21” value was determined as 264 nM.
PPDVGSSDPLSMVG[dP]SQGRSPSYAS-NH2 [FGF21 C25 d15]: the “% Activity vs C25” value was found to be 66.8% and the “IC50 of antagonism of FGF21” value came to 375 nM.
With [dP]PDVGSSDPLSMVGPSQGRSPSYAS-NH2 [FGF21 C25 d1], the “% Activity vs C25” value worked out at 54.2% and the “IC50 of antagonism of FGF21” value was 877 nM.
The like results for PP[dD]VGSSDPLSMVGPSQGRSPSYAS-NH2 [FGF21 C25 d3] were, in that order, 15.6% and 6100 nM.
In the case of PPDVGSSDPLSMVGP[dS]QGRSPSYAS-NH2 [FGF21 C25 d16], the “% Activity vs C25” value came to 46% and the “IC50 of antagonism of FGF21” value was 531 nM.
With P[dP]DVGSSDPLSMVGPSQGRSPSYAS-NH2 [FGF21 C25 d2], the “% Activity vs C25” value came out at 7.61% and the “IC50 of antagonism of FGF21” value is 4720 nM.
As to PPDVGSSDPLSMVGPSQGRSPSY[dA]S-NH2 [FGF21 C25 d24], the “% Activity vs C25” value came out at 32.3% and the “IC50 of antagonism of FGF21” value was determined as 1130 nM.
On the same counts, the results for PPDVGSSDPLSMVGPSQGRS[dP]SYAS-NH2 [FGF21 C25 d21] are 3.8% and 7800 nM.
On to PPDVGSSDPLSMVGPSQGR[dS]PSYAS-NH2 [FGF21 C25 d20], for which the “% Activity vs C25” value worked out at 2.3% and the “IC50 of antagonism of FGF21” value was 33700 nM.
As to PPDVGSSDPLSMVGPS[dQ]GRSPSYAS-NH2 [FGF21 C25 d17], the “% Activity vs C25” value stood at 90.3% and the “IC50 of antagonism of FGF21” value is 262 nM.

For the next assay, the target named is T1, human Klotho β. Nature of the assay: cell-based or functional assay. The source holds these as a separate data set.
Take PPDVASSDPLSMVGPSQGRSPSYAS [FGF21 25mer A5]: the “IC-50 of antagonism of FGF21 (pErk1/2, 293 HEK hKLB cells)” value (“IC-50 of antagonism of FGF21” for short) turned out to be 0.09 µM.
With PPDVGSSDPLAMVGPSQGRSPSYAS [FGF21 25mer A11], the “IC-50 of antagonism of FGF21” value was 0.15 µM.
Still for that read-out and setting: the value for PLETDSMDPFGLVTGLEAVRSPSFEA [FGF19 169-194 K194A] was 0.005 µM; that for PPDVGSSDPLSMVAPSQGRSPSYAS [FGF21 25mer A14] was 0.13 µM.
Same read-out and setting: the value for PPDVGSADPLSMVGPSQGRSPSYAS [FGF21 25mer A7] was 0.36 µM.

For the next assay, the target named is T1, human Klotho β. Nature of the assay: cell-based or functional assay. This is another data set of the same source.
Molecule “FGF19 169-194 alanine mutant G183 (from UniProt O95750 191-216) (peptide)” returned an IC-50 of antagonism of FGF21 (pErk1/2, 293 HEK hKLB cells) of 0.4 µM.
Consider “FGF19 169-194 alanine mutant E171 (from UniProt O95750 191-216) (peptide)”, for which the IC-50 of antagonism of FGF21 (pErk1/2, 293 HEK hKLB cells) is 0.12 µM.
As for “FGF19 169-194 K194L (from UniProt O95750 191-216) (peptide)”, the IC-50 of antagonistic activity (FIG. 8A) stood at 17.3 nM.
“FGF19 169-194 alanine mutant T182 (from UniProt O95750 191-216) (peptide)”: the IC-50 of antagonism of FGF21 (pErk1/2, 293 HEK hKLB cells) was found to be 0.52 µM.
Consider “FGF19 169-194 K194S (from UniProt O95750 191-216) (peptide)”, for which the IC-50 of antagonistic activity (FIG. 8A) was 22.3 nM.
Still for that read-out and setting: the value for “FGF19 169-194 K194E (from UniProt O95750 191-216) (peptide)” was 87.9 nM.
The molecule “FGF19 169-194 alanine mutant E193 (from UniProt O95750 169-194) (peptide)” showed an IC-50 of antagonism of FGF21 (pErk1/2, 293 HEK hKLB cells) of 0.85 µM.
“FGF19 169-194 alanine mutant L170 (from UniProt O95750 191-216) (peptide)” registered an IC-50 of antagonism of FGF21 (pErk1/2, 293 HEK hKLB cells) of 2.17 µM.
The same measure, in the same setting: the value for “FGF19 169-194 alanine mutant V181 (from UniProt O95750 191-216) (peptide)” was 1.81 µM.
Regarding “FGF19 K194A (from UniProt O95750 25-216) (ligand)”, the % maximal activity, Erk1/2 phosphorylation in 293T HEK hKLB cells (FIG. 9B) came out at 31% and the EC-50 of Erk1/2 phosphorylation in 293T HEK hKLB cells (FIG. 9B) came to 8.1 nM.
“FGF19 169-194 alanine mutant V187 (from UniProt O95750 191-216) (peptide)” showed an IC-50 of antagonism of FGF21 (pErk1/2, 293 HEK hKLB cells) of 0.69 µM.
In turn, “FGF19 169-194 alanine mutant L184 (from UniProt O95750 191-216) (peptide)” displayed an IC-50 of antagonism of FGF21 (pErk1/2, 293 HEK hKLB cells) of 0.2 µM.
Still for that read-out and setting: the value for “FGF19 169-194 alanine mutant D173 (from UniProt O95750 191-216) (peptide)” was 0.46 µM; that for “FGF19 169-194 alanine mutant G179 (from UniProt O95750 191-216) (peptide)” was 1.93 µM; that for “FGF19 169-194 alanine mutant F192 (from UniProt O95750 191-216) (peptide)” was 2.97 µM.
The same measure, in the same setting: under “FGF19 169-194 alanine mutant E185 (from UniProt O95750 191-216) (peptide)” stands 0.43 µM; under “FGF19 169-194 alanine mutant T172 (from UniProt O95750 191-216) (peptide)”, 1.4 µM.
Turning to “FGF19 169-194 alanine mutant P190 (from UniProt O95750 191-216) (peptide)”, the IC-50 of antagonism of FGF21 (pErk1/2, 293 HEK hKLB cells) is over 2 µM.
On the same count and under the same terms, the value for “FGF19 169-194 alanine mutant R188 (from UniProt O95750 191-216) (peptide)” was 0.38 µM.
“FGF19 169-194 (from UniProt O95750 169-194) (peptide)” registered an IC-50 of antagonism of FGF21 (pErk1/2, 293 HEK hKLB cells) of 0.27 µM and an IC-50 of antagonistic activity (FIG. 8B) of 0.05 µM.
“FGF19 169-194 alanine mutant M175 (from UniProt O95750 191-216) (peptide)” registered an IC-50 of antagonism of FGF21 (pErk1/2, 293 HEK hKLB cells) of 0.15 µM.
In turn, “FGF19 169-194 alanine mutant S174 (from UniProt O95750 191-216) (peptide)” registered an IC-50 of antagonism of FGF21 (pErk1/2, 293 HEK hKLB cells) of 3.39 µM.
As for “FGF19 169-194 alanine mutant P169 (from UniProt O95750 191-216) (peptide)”, the IC-50 of antagonism of FGF21 (pErk1/2, 293 HEK hKLB cells) came to 0.21 µM.
“FGF19 169-194 alanine mutant S189 (from UniProt O95750 169-194) (peptide)” displayed an IC-50 of antagonism of FGF21 (pErk1/2, 293 HEK hKLB cells) of over 2 µM.
“FGF19 169-194 alanine mutant S191 (from UniProt O95750 191-216) (peptide)” gave an IC-50 of antagonism of FGF21 (pErk1/2, 293 HEK hKLB cells) of over 2 µM.

For another assay, the target named is T1, human Klotho β. Description: cell-based or functional assay. The source holds these as a separate data set.
PPDVASSDPLSMVGPSQGRSPSYAS [FGF21 25mer A5]: the “% max activity of antagonism of FGF21 (pErk1/2, 293 HEK hKLB cells)” value (shortened to “% max activity of antagonism of FGF21”) is 102% and the “IC-50 of antagonism of FGF21” value worked out at 90.1 nM.
In the case of PPDVGSSDPLAMVGPSQGRSPSYAS [FGF21 25mer A11], the “% max activity of antagonism of FGF21” value is 98% and the “IC-50 of antagonism of FGF21” value came to 102 nM.
On the same counts, the results for PPDVGSSDPLSMVAPSQGRSPSYAS [FGF21 25mer A14] are 97.7% and 136 nM.
As for PPDVGSADPLSMVGPSQGRSPSYAS [FGF21 25mer A7], the “% max activity of antagonism of FGF21” value is 94.5% and the “IC-50 of antagonism of FGF21” value turned out to be 359 nM.
